From the supplement of paper PMC10567573

B1: CHMP4C (parent)
chain: SSKSRAAPSPQEALVRLRETEEML
B2: SLC35F2 (parent)
chain: FVAFALCMFCLYSFMPLVIKVTSA

Variants of: B1
Experiment: protein stability index of a GFP-peptide fusion (GPS, HEK-293T) (PSI 1-6); higher = more stable
Conditions: c terminus: a fixed tail appended
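Note: lentivirally expressed fusions sorted by FACS into six bins by GFP to DsRed ratio, PSI derived from sequencing read proportions per bin multiplied by bin number.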

Protein stability index, by site and new letter:
L24: Y 3.64; H 4.37; F 4.25; S 4.53; T 3.92; W 3.92; D 5.37; E 5.94; I 2.52; M 3.11; G 4.97; N 5.32; R 4.22; Q 5.69
A7: M 3.21; K 1.45; T 4.48; Q 2.32; V 2.56; P 1.03
M23: K 2.15; P 4.44; W 1.55; Y 1.41; A 2.07; E 2.08; H 4.34; Q 2.38; F 2.24; D 4.26; S 3.95; T 3.55
E21: M 4.23; W 2.39; F 3.21; Q 3.95; Y 2.3; D 4; S 4.09; A 4.28; N 4.49; T 2.81; G 3.63; I 2.83
E22: D 2.14; Q 2.31; V 2.84; T 3.01; G 2.44; F 2.05; M 1.82; P 4.66; I 2.92; W 1.71
L14: Y 2.49; K 4.46; W 1.42; F 4.77; V 3; T 4.6; I 2.32; D 4.96; A 3.39; H 4.46; S 4.33; C 2.06; R 2.92; M 2.41; P 5.2
Q11: T 1.16; K 1.9; F 1.01; C 1.78; P 3.7; V 3.06; A 2.68
E12: M 2.05; L 3.27; W 2.67; G 2.23; H 3.06; F 2.75; C 2.96; S 2.06; K 4.3; V 2.81
R5: C 1.78; G 1.3; T 2.17; L 1.48; D 2.36
K3: D 3.17; T 1.79; A 1.97; W 1.74
E19: K 3.19; I 4.1; Q 1; N 2.27; H 2.9; C 2.66; G 2.44; Y 1.97; P 4.63; S 3.01; W 2.36; R 3.52; A 2.6
S1: H 1.97; V 3.02; E 1.3; N 2.38
S9: I 3.22; D 1.51; R 3.19; V 3.85; C 1.54; T 1.94; A 2.38
T20: C 4.19; W 3.45; V 3.14; Q 4.83; P 5.12; I 3.27; D 2.08
P10: T 4.26; S 3.85; R 4.01; H 4.21; Y 2.99; K 4.6; E 3.41; V 1.81; C 3.05; Q 4.58; N 4.79; W 1.67
L17: A 4.71; I 1.76; Y 4.4; T 5.6; N 4.59; S 5.01; R 5.53; G 5.31; E 5.68; H 4.79; F 4.28
V15: P 4.34; M 2.17; S 2.18; K 2.48; Q 3.07; D 1.85
R16: H 1.63; E 2.24; W 2.45; D 1.98; G 3.79; Q 2.49; Y 2.22; T 4.39
A6: Y 4.65; H 1.28; K 1.8; N 1.61; F 2.83; R 1.96; D 1.81; I 2.15
S2: T 1.78; A 2.44; C 2.38; E 1.86
S4: T 2.58; D 1.4
R18: P 5.12; K 2.15; N 1.8; Y 2.45; L 4.8; S 2.17; A 1.51; E 4.89; F 1.83; H 5.68; D 5.46; Q 2.57
A13: W 3.33; D 5.58; C 1.82; G 3.34; K 4.47; H 3.99; Q 4.8; Y 2.3; L 2.06
P8: V 4; N 2.54; Q 1.95; W 2.56; C 1.87; L 2.46

Variants of: B2
Experiment: as above
Conditions: c terminus: a fixed tail appended

Protein stability index of substitutions, site by site:
L6: K 2.38; C 2.33; S 3.91; G 2.14; H 3.22; D 3.24; I 2.5; F 2.84; N 3.13; A 2.8; T 2.16; V 2.13; E 2.43; W 3.52; P 2.79; Y 3.21; Q 3.48
V2: I 4.37; F 2.7; N 3.7; R 2.37; A 2.72; P 3.21; S 2.71; C 2.5; G 3.29; T 4.03; K 2.97; L 3.45; D 2.14; Q 2.65; E 2.27; W 2.44
M8: C 2.4; D 2.12; H 2.8; K 2.51; I 2.88; A 3.8; F 2.67; E 3.62; L 2.67; G 1.97
A5: K 2.58; P 2.62; Y 2.58; E 2.48; F 1.59; V 2.75; H 2.52; S 3.44; R 2.84; M 2.38; L 2.47; N 1.4; D 3.05; I 3.68; C 2.67; W 3.11
F1: E 3.64; M 2.59; P 2.61; I 3.76; Y 2.99; H 3.02; D 2.71; K 2.5; Q 3.03; V 2.51; C 2.46; L 3.61; A 2.36; W 2.65; N 3.06; R 4.03; T 2.5; G 3.04
F4: T 3.63; Q 2.23; D 4.88; Y 2.33; P 4.46; K 2.01; E 3.18; G 2.87; R 3.58; A 2.54; W 3.22; C 2.52; H 2.26; V 3.37; L 4.33; M 2.64; N 4.39; I 2.65
C7: K 2.46; I 2.35; P 1.95; Y 2.85; R 3.23; Q 3.11; W 2.19; S 3.35; T 2.6; D 3.08; H 3.27; M 3.58; A 2.45; L 2.99; V 3.59; N 4.12; E 2.19; F 2.43
A3: C 2.05; F 2.64; W 2.55; N 2.43; T 2.21; R 3.31; K 2.42; I 2.84; L 2.38; Y 3.12; M 2.65; P 1.98; S 2.81; H 2.44; E 2.62; V 3.02; D 2.37
